In one data set the test system is 786-O (human RCC) cells. Put plainly: In vitro cytotoxicity, MTT assay, in absence or presence of neutrophil elastase. As to conditions: 72 h exposure. The data set is classed as cell-based. On the procedure:
(§1) 786-O (human RCC), HT-29 (human CRC), NCI-H292 (human NSCLC), NCI-H69 (human SCLC), MX-1 (human TNBC), and SUM149PT (human IBC) cells were acquired from ATCC and cultured according to the provider’s instructions.
(§2) The in vitro cytotoxicity of the SMDCs in comparison to the respective payloads was tested in a panel of cancer cell lines after a 72 h continuous exposure in presence or absence of 20 nM neutrophil elastase using MTT assays (ATCC). IC50 values were determined as the concentration of compound required for 50% inhibition of cell viability.

The next data set concerns HT-29 (human CRC) cells. The description is as above. The data set is classed as cell-based. As to conditions: 72 h exposure. Here is the method: as §1, §2
Data set [1] relates to NCI-H292 (human NSCLC) cells. The data set is described as above. The data set is classed as cell-based. The note with it: 72 h exposure. On the procedure:
as §1, §2

Data set [2] has as its system SUM149PT (human IBC) cells. Described as above. As to conditions: 72 h exposure. The data set is classed as cell-based. Here is the method:
as §1, §2

Data set [3] in a line: Hydrolytic stability in PBS buffer at pH 7.4. The data set is classed as physicochemical. The note with it: PBS pH 7.4, 37 °C, 24 h. Here is the method: For hydrolytic stability measurement, compounds 2, 3, 4, 5 and 6 (0.15 mg) were dissolved in acetonitrile/DMSO (4:1, 0.5 mL) and 1 mL of PBS buffer at pH 7.4 was then added. The sample solution was analyzed by HPLC to determine the amount of the test compound and the formation of degradation products over a period of 24 h at 37 °C.

A further data set can be described thus: Stability in rat plasma. The data set is classed as in vitro ADME. The note with it: 37 °C. On the procedure: The SMDC compounds 2, 3, 4, 5 and 6 (1 mg) were dissolved in acetonitrile/DMSO (1:1, 0.5 mL). While vortexing, 20 µL of this solution was added to 1 mL rat plasma at 37 °C. The incubation was stopped at respective time intervals by adding acetonitrile/buffer pH 3 (80:20) and the test compounds and formation of degradation products were analyzed by LC and LC/MS.

The nature of data set [4]: Stability in human plasma. The data set is classed as in vitro ADME. As to conditions: 37 °C.
The target of data set [5] is T1, human neutrophil elastase (Homo sapiens, UniProt P08246).
T1 sequence (P08246 30-267): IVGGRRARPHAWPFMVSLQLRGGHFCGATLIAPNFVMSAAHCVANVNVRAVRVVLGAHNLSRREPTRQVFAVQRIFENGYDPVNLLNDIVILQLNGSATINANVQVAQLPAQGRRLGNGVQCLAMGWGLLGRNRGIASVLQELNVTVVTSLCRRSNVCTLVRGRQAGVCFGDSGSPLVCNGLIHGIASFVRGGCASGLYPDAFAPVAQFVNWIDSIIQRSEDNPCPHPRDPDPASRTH
Put plainly: Human neutrophil elastase cleavability assay. The data set is classed as biochemical. The note with it: 5 µM SMDC, 20, 40, 60 nM NE, 1 h, 37°C. On the procedure: For the NE cleavability assay, the SMDC test compound was added to buffer (150 mM NaCl, 10 mM CaCl2, 0.05% BSA) to a final concentration of 5 µM (0.5% DMSO). The reaction was started by adding different concentrations of human NE (0, 20, 40, 60 nM) to the reaction vials. After incubation for 1 h at 37°C, the enzymatic reaction was stopped by precipitation in 50% ACN. Subsequently, the samples were subjected to HPLC-MS analysis to determine the concentration of test compound and of its metabolite.

Data set [6] in a line: Intravenous pharmacokinetics in rat. The data set is classed as in vivo. The note with it: male Wistar rats, 0.5 mg/kg SMDC i.v., plasma; for AUC(0-inf) / half-life / clearance / Vd: rat, iv; for clearance: read-out: CLp; for Vd: read-out: Vss. Here is the method: Pharmacokinetic properties of SMDCs and their respective payloads were characterized in rats. Briefly, male Wistar rats (n = 3) were given a 0.5 mg/kg dose of SMDC formulated in plasma/DMSO (99:1) intravenously (i.v.) via tail vein. Blood was collected at pre-dose, 2, 5, 15, 30, 45, 60 min, 2, 4, 7, 24 h post-dose and then processed to plasma. Plasma was frozen at < −20°C until sample analysis. Plasma samples were analyzed for concentrations of SMDCs and their respective released payloads by LC-MS/MS.
(§3) Pharmacokinetics of SMDCs and their respective payloads from in vivo studies were determined using mean concentration-time profiles. All pharmacokinetic parameters were calculated by non-compartmental methods as previously described ([Perrier and Gibaldi, 1982]).

Data set [7] is described as follows: Plasma and tumor pharmacokinetics in NCI H69 tumor-bearing mice. As to conditions: single dose Compound 3 10 mg/kg IV, analyte conjugate 3 or released payload 8. The data set is classed as in vivo. On the procedure: In order to assess the selective concentration of payload to tumor tissue, the pharmacokinetic properties of the SMDC 3 and its payload 8, in plasma and tumor was also characterized in female NMRI nu/nu xenograft mice (Taconic M&B A/S) bearing NCI H69 human small cell lung cancer tumors. The mice were treated i. v. via the tail vein with a single dose of 3 at 10 mg/kg. Plasma and tumor samples were collected at 0.25, 1, 7, and 24 h after treatment (n = 2 mice/group at each time point) and were stored frozen at < −20°C until sample analysis. Concentrations of the SMDCs and their respective payloads were measured by LC-MS/MS.
as §3

A further data set concerns NCI H69 SCLC xenograft. The data set is described as follows: In vivo efficacy in NCI H69 SCLC xenograft model. Also noted: species or system mice. The note with it: for Body weight changes: NCI H69 model, QWx2 (4: 5 mg/kg; 6: 40 mg/kg). On the procedure:
For the NCI H69 study, immunocompromised mice were inoculated subcutaneously with 1.3 × 10^6 NCI H69 cells in 50% Matrigel/50% Media on day 0. Treatment was started at a mean tumor area in the range of […] in the NCI H69 model (n = 8/group, compound 4 at 5 mg/kg i. v., QW, and compound 6 at 40 mg/kg i. v., QW). In an independent experiment in the same CDX xenograft model compound 3 was tested at 10 mg/kg i. v., QW.

Where [8] appears, read: with 20 nM neutrophil elastase, read-out: IC50 786–0 + neutrophil elastase.
Where [9] appears, read: without neutrophil elastase, read-out: IC50 786–0.
Setting [10] is: with 20 nM neutrophil elastase, read-out: IC50 HT29 + neutrophil elastase.
Setting [11] is: without neutrophil elastase, read-out: IC50 HT29.
[12] abbreviates: with 20 nM neutrophil elastase, read-out: IC50 NCI-H292 + neutrophil elastase.
Setting [13] is: without neutrophil elastase, read-out: IC50 NCI-H292.
Where [14] appears, read: with 20 nM neutrophil elastase, read-out: IC50 SUM149 PT + neutrophil elastase.
Setting [15] is: without neutrophil elastase, read-out: IC50 SUM149PT.

“Also recorded” adds a separate entry of the source. Read-outs that look alike come from different tables or passages of the source.

For `CCCNC(=O)Nc1cccc(S(=O)(=O)Nc2cccc([C@@H](CC(=O)O)NC(=O)Nc3ccc(NC(=O)NCCOCCOCCOCCC(=O)N[C@@H](CC(=O)O)C(=O)N4CCC[C@H]4C(=O)N[C@H](C(=O)N=S(C)(=O)Cc4cc5cc(c4)OC(C)CCOc4cc(F)ccc4-c4nc(ncc4F)N5)C(C)C)cc3)c2)c1` (stereo partly drawn) [Compound 3], the IC50 was 3.1 nM in the data set on 786-O (human RCC) cells (setting [8]); over 1000 nM with 786-O (human RCC) cells (setting [9]); 1.9 nM with HT-29 (human CRC) cells (setting [10]); 990 nM in the data set on HT-29 (human CRC) cells (setting [11]); 4.5 nM in data set [1] (setting [12]); 880 nM in data set [1] (setting [13]). Moreover, the half-inhibitory concentration (IC50) in data set [2] (setting [14]) is 1.2 nM; in [2] (setting [15]), 770 nM. The “Stability in buffer pH 7.4” value in [3] is recorded as “highly stable”. The “Stability in rat plasma” value in the data set “Stability in rat plasma” is “highly stable”. In addition, the “Stability in human plasma” value in data set [4] is listed as “highly stable”. Besides, the “Cleavage by human NE” value in [5] is “essentially completely cleaved”. The Vss result in [6] is “comparable to plasma volume”. Also, the “payload/parent AUC ratio” value in [6] (molar basis, 0.5 mg/kg) was determined as 0.307. The compound also yielded an AUC(0-inf) in data set [6] (in vivo) of 0.801 ± 0.126 µM·h. In data set [6] (in vivo), this compound gave a half-life of 14.4 ± 3 min. For the same compound, the clearance in data set [6] (in vivo) is 6.6 ± 0.95 mL/min/kg. In addition, in data set [6] (in vivo), the Vd came to 0.0366 ± 0.0053 L/kg. For the same compound, the AUC(0-t) in data set [7] (mouse, in vivo, plasma) was 43 µM·h. Further, the Cmax in data set [7] (mouse, in vivo, plasma) came out at 49 µM. In data set [7], the “tumor/plasma AUC ratio” value was found to be 0.126. Also, the “Tumor growth NCI H69” value with NCI H69 SCLC xenograft (10 mg/kg i.v. weekly, 3 treatment cycles) is listed as “No significant inhibition”.
With `CCCNC(=O)Nc1cccc(S(=O)(=O)Nc2cccc([C@@H](CC(=O)O)NC(=O)Nc3ccc(NC(=O)NCCOCCOCCOCCC(=O)N[C@@H](CC(=O)O)C(=O)N4CCC[C@H]4C(=O)N[C@H](C(=O)O[C@@H](c4ccccc4)[C@@H](C)NC(=O)[C@H](C)[C@@H](OC)[C@@H]4CCCN4C(=O)C[C@@H](OC)[C@H]([C@@H](C)CC)N(C)C(=O)[C@@H](NC(=O)[C@@H](NC)C(C)C)C(C)C)C(C)C)cc3)c2)c1` [Compound 4], the IC50 is 6.6 nM in the data set with 786-O (human RCC) cells (setting [8]); 660 nM in the data set with 786-O (human RCC) cells (setting [9]); 0.43 nM in the data set on HT-29 (human CRC) cells (setting [10]); 78 nM in the data set with HT-29 (human CRC) cells (setting [11]); 0.35 nM in data set [1] (setting [12]); 71 nM in data set [1] (setting [13]). In addition, the 50% inhibitory concentration (IC50) in data set [2] (setting [14]) turned out to be 0.51 nM; in data set [2] (setting [15]), 50 nM. Besides, in data set [3], the “Stability in buffer pH 7.4” value was “highly stable”. Besides, in the data set “Stability in rat plasma”, the “Stability in rat plasma” value is recorded as “highly stable”. Further, the “Stability in human plasma” value in data set [4] is “highly stable”. The compound further returned an area under the curve AUC(0-inf) in data set [6] of 3.03 ± 0.11 µM·h. This compound had a half-life in data set [6] of 138 ± 57 min. For the same compound, the clearance in data set [6] worked out at 1.47 ± 0.06 mL/min/kg. Besides, the Vd in [6] amounted to 0.157 ± 0.015 L/kg. Also, the Body weight changes result in the data set on NCI H69 SCLC xenograft is “very minor”.
As to `CCCNC(=O)Nc1cccc(S(=O)(=O)Nc2cccc([C@@H](CC(=O)O)NC(=O)Nc3ccc(NC(=O)NCCOCCOCCOCCC(=O)N[C@@H](CC(=O)O)C(=O)N4CCC[C@H]4C(=O)N[C@H](C(=O)N[C@@H](CCN(C(=O)CO)[C@@H](c4cc(-c5cc(F)ccc5F)cn4Cc4ccccc4)C(C)(C)C)C(=O)NC)C(C)C)cc3)c2)c1` [Compound 6], the IC50 in the data set with 786-O (human RCC) cells (setting [8]) was determined as 8.7 nM. Also, the IC50 in the data set on HT-29 (human CRC) cells (setting [10]) was 1.7 nM. Also, in data set [1] (setting [12]), the IC50 was 1.3 nM. For the same compound, in data set [2] (setting [14]), the IC50 came to 0.6 nM. Besides, the “Stability in buffer pH 7.4” value in data set [3] is “Very small fractions of a degradation product; also recorded: highly stable”. The “Stability in rat plasma” value in the data set “Stability in rat plasma” was “highly stable”. Moreover, the “Stability in human plasma” value in data set [4] is reported as “highly stable”. Further, in [6], the Vss entry is on record as “comparable to plasma volume”, the AUC(0-inf) was found to be 2.98 ± 0.25 µM·h, the half-life was 26.5 ± 1.38 min and the clearance is 1.69 ± 0.15 mL/min/kg. In addition, the Vd in data set [6] came to 0.0377 ± 0.005 L/kg. Besides, in the data set with NCI H69 SCLC xenograft, the Body weight changes entry is “very minor”.

The record behind these values is article PMC10943695, “Neutrophil elastase as a versatile cleavage enzyme for activation of αvβ3 integrin-targeted small molecule drug conjugates with different payload classes in the tumor microenvironment” (Frontiers in Pharmacology, 2024).
